Entries after “also recorded” stand apart in the source; their conditions may differ.
Assays:
[1] = tested on: freshly isolated bone marrow; assay: Epo-dependent erythroid colony formation (CFU-e/BFU-e) in MethoCult, bone marrow; format: cell-based, mouse; settings: BM progenitors of all stages
From the text: Here, IL-17ra is expressed in the EEP region of the bBM SPRING plot (FIG. 4, Panel a) and its corresponding P2 subset (FIG. 4, Panel n), and to a lesser extent in the CEP/P1 region, in addition to its expression by non-erythroid cells. Both Ryk and mst1r are expressed more selectively, principally within the CEP/P1 region of the erythroid trajectory (FIG. 4, Panels a and n). Wnt5a, MSP and IL-17a were used to stimulate Ryk, mst1r and IL-17ra respectively, and measured their interaction with Epo, an essential erythroid cytokine, using colony formation assays (FIG. 4, Panel c). […]
In bone marrow (BM), 1117ra was expressed by EEPs/P2 and to a lesser extent by CEPs/P1, in addition to non-erythroid cells. […] Ryk, Mst1r and IL-17Ra were stimulated with their respective ligands, Wnt5a, MSP and IL-17a, using Epo-dependent erythroid colony formation as readout (FIG. 15, Panels b and c, FIG. 7). […]
Growth factor perturbations of erythroid colony formation: CFU-e and BFU-e colony formation assays in MethoCult (M3234 STEMCELL Technologies) were carried out on either freshly isolated bone marrow or on embryonic day 13.5 fetal liver cells from Balb/cJ mice. […] Colonies were scored on day 3 (for CFU-e), day 4 (for late BFU-e) and on day 7 (for early BFU-e) following staining with diaminobenzidine, to highlight hemoglobin expression.

[2] = tested on: embryonic day 13.5 fetal liver cells; assay: Epo-dependent erythroid colony formation (CFU-e/BFU-e) in MethoCult, fetal liver; format: cell-based, mouse
From the text: Here, IL-17ra is expressed in the EEP region of the bBM SPRING plot (FIG. 4, Panel a) and its corresponding P2 subset (FIG. 4, Panel n), and to a lesser extent in the CEP/P1 region, in addition to its expression by non-erythroid cells. Both Ryk and mst1r are expressed more selectively, principally within the CEP/P1 region of the erythroid trajectory (FIG. 4, Panels a and n). Wnt5a, MSP and IL-17a were used to stimulate Ryk, mst1r and IL-17ra respectively, and measured their interaction with Epo, an essential erythroid cytokine, using colony formation assays (FIG. 4, Panel c). Epo concentration in blood ranges from 5-10 mU/ml in the basal state, to 10,000 mU/ml in extremely severe anemia The addition of MSP to FL in the presence of mildly elevated Epo concentrations (50 mU/ml, characteristic of mild anemia) was equivalent to a 10-fold increase in Epo concentration, generating over 2 fold the number of CFUe (day 3 unifocal) colonies. However, in the context of high Epo (>100 mU/ml), the addition of MSP was inhibitory. MSP-mediated inhibition was also seen in earlier FL progenitors and in BM progenitors of all stages. […] In summary, MSP, Wnt5a and IL-17a may provide powerful modulation of pre-ETD erythroid progenitors, in a manner that is highly dependent on their developmental stage and background state of progenitor stimulation (stress v. basal).
In bone marrow (BM), 1117ra was expressed by EEPs/P2 and to a lesser extent by CEPs/P1, in addition to non-erythroid cells. Both Ryk and Mst1r are expressed more selectively, though not exclusively, by EEP and CEP cells (FIG. 15, Panel a, and FIG. 16, Panels a and b). Ryk, Mst1r and IL-17Ra were stimulated with their respective ligands, Wnt5a, MSP and IL-17a, using Epo-dependent erythroid colony formation as readout (FIG. 15, Panels b and c, FIG. 7). Epo concentration in blood varies from ˜10 mU/ml in health, to 10,000 mU/ml in severe anemia. […] By contrast. IL-17a mediated a potentiation of adult BM CFU-e colony formation throughout the Epo dose-response curve, giving rise to 4-fold more colonies at lower Epo (50 mU/ml), and to a ˜50% increase in colony formation when added to maximal levels of Epo (FIG. 15, Panels b. and c).
Growth factor perturbations of erythroid colony formation: CFU-e and BFU-e colony formation assays in MethoCult (M3234 STEMCELL Technologies) were carried out on either freshly isolated bone marrow or on embryonic day 13.5 fetal liver cells from Balb/cJ mice. The following growth factors were tested: MSP/MST1 (R&D systems; CAT #6244-MS-025), Recombinant Human/Mouse Wnt-5a (R&D systems; CAT #645-WN-010) and Recombinant Murine IL17 (IL-17A) (PeproTech; CAT 4210-17). In each experiment, a range of Epo concentrations was tested, with or without added additional growth factors (MSP, Wnt5a or IL-17A) as indicated in FIG. 5 and in Extended Data FIG. 12. In addition to Epo, IL-3 (long/mL) and SCF (50ng/ mL) were added to the MethoCult in the case of BFU-e assays. Each condition was tested in quadruplicates, in at least 2 separate experiments. Colonies were scored on day 3 (for CFU-e), day 4 (for late BFU-e) and on day 7 (for early BFU-e) following staining with diaminobenzidine, to highlight hemoglobin expression.

B1: MSP: Macrophage Stimulating Protein, ligand of Mst1r; R&D systems CAT #6244-MS-025 (protein)
chain: MGLWWVTVQPPARRMGWLPLLLLLTQCLGVPGQRSPLNDFQVLRGTELQHLLHAVVPGPWQEDVADAEECAGRCGPLMDCRAFHYNVSSHGCQLLPWTQHSPHTRLRRSGRCDLFQKKDYVRTCIMNNGVGYRGTMATTVGGLPCQAWSHKFPNDHKYTPTLRNGLEENFCRNPDGDPGGPWCYTTDPAVRFQSCGIKSCREAACVWCNGEEYRGAVDRTESGRECQRWDLQHPHQHPFEPGKFLDQGLDDNYCRNPDGSERPWCYTTDPQIEREFCDLPRCGSEAQPRQEATTVSCFRGKGEGYRGTANTTTAGVPCQRWDAQIPHQHRFTPEKYACKDLRENFCRNPDGSEAPWCFTLRPGMRAAFCYQIRRCTDDVRPQDCYHGAGEQYRGTVSKTRKGVQCQRWSAETPHKPQFTFTSEPHAQLEENFCRNPDGDSHGPWCYTMDPRTPFDYCALRRCADDQPPSILDPPDQVQFEKCGKRVDRLDQRRSKLRVVGGHPGNSPWTVSLRNRQGQHFCGGSLVKEQWILTARQCFSSCHMPLTGYEVWLGTLFQNPQHGEPSLQRVPVAKMVCGPSGSQLVLLKLERSVTLNQRVALICLPPEWYVVPPGTKCEIAGWGETKGTGNDTVLNVALLNVISNQECNIKHRGRVRESEMCTEGLLAPVGACEGDYGGPLACFTHNCWVLEGIIIPNRVCARSRWPAVFTRVSVFVDWIHKVMRLG
B1 was tested, and the “effect on erythroid colony formation in BM” value [1] was “inhibition; also recorded: inhibitory effect”, the “effect on fetal liver erythropoiesis at low erythropoietin” value ([2]; FL, Epo 50 mU/ml or less) was “enhance erythropoiesis” and the “equivalent increase in Epo concentration” value ([2]; FL, Epo 50 mU/ml, ligand added) was 10 fold. For the same molecule, the “number of CFUe (day 3 unifocal) colonies generated, fold” value ([2]; FL, Epo 50 mU/ml, ligand added) was “over 2 fold”, the “effect on fetal liver erythropoiesis at high Epo” value ([2]; FL, Epo >100 mU/ml) was “inhibitory; also recorded: inhibit erythropoiesis” and the “effect in earlier FL progenitors” value ([2]; FL, earlier progenitors (BFU-e)) was “inhibition”. The “effect on erythroid colony formation in other contexts” value ([2]; contexts other than FL at Epo 50 mU/ml (FL and BM)) was “inhibitory”.

B2: Wnt5a: Recombinant Human/Mouse Wnt-5a, ligand of Ryk; R&D systems CAT #645-WN-010 (protein)
chain: MAGSAMSSKFFLVALAIFFSFAQVVIEANSWWSLGMNNPVQMSEVYIIGAQPLCSQLAGLSQGQKKLCHLYQDHMQYIGEGAKTGIKECQYQFRHRRWNCSTVDNTSVFGRVMQIGSRETAFTYAVSAAGVVNAMSRACREGELSTCGCSRAARPKDLPRDWLWGGCGDNIDYGYRFAKEFVDARERERIHAKGSYESARILMNLHNNEAGRRTVYNLADVACKCHGVSGSCSLKTCWLQLADFRKVGDALKEKYDSAAAMRLNSRGKLVQVNSRFNSPTTQDLVYIDPSPDYCVRNESTGSLGTQGRLCNKTSEGMDGCELMCCGRGYDQFKTVQTERCHCKFHWCCYVKCKKCTEIVDQFVCK
With B2 the “effect on erythroid colony formation in BM” value [1] was “consistent and potent inhibitor” and the “effect on erythroid colony formation in FL” value ([2]; FL progenitors) was “consistent and potent inhibitor”.
